Assay results as given in patent US20210187091A1 (published 2021).
Read-outs that look alike come from different tables or passages of the source.

B1: DH270.IA1 (antibody, V domains shown)
VH: QVQLVQSGAEVKKPGASVKVSCKASGYTFTDYYIHWVRQAPGQGLEWMGWINPNTGRTNYAQKFQGRVIMTRDTSISTAYMELSRLRSDDTAVYYCARGGWIGLYYDSSGYPNFDYWGQGTLVTVSS
VL: QSALTQPASVSGSPGQSITISCTGTSYDVGSYNLVSWYQQHPGKAPKLMIYEVSKRPSGVSNRFSGSKSGNTASLTISGLQAEDEADYYCCSYAGSSTVIFGGGTKLTVL
B2: DH270.2 (antibody, V domains shown)
VH: QVQLVQSGAEMKKPGASVRVSCKASGYTFTDYYIHWVRQAPGQGPEWMGWINPSTGRTNSPQKFQGRVIMTRDTSISTAYMDLNRLTSDDTAMYYCTTGGWIGLYSDTSGYPNFDYWGQGTLVTVSS
VL: QSALTQPASVSGSPGQSITISCTGTNYDVGSYNLVSWYQQHPGKVPKYIIYEVNKRPSGVSNRFSGSKSGNTASLTISGLQAEDEADYYCCSYAGSSIIFFGGGTKLTVI
B3: DH270.5 (antibody, V domains shown)
VH: QVQLVQSGAEVKNPGASVKVSCAPSGYTFTDFYIHWVRLAPGQGLEWLGWMNPKTGRTNQGQNFQGRVIMTRDTSIGTAYMELRSLTSDDTAVYYCVTGAWISDYYDSSYYPNFDHWGQGTLVTVSS
VL: LPVLTQPASVSGSPGQSITISCTGTIYDVGKFDLVSWYQHHPGKAPKYLIYEVKKWPSGVSHRFSGSKSGNTASLTISGLQVEDEADYYCCSFGGSAAVVCGGGTKVTVL
B4: DH270.3 (antibody, V domains shown)
VH: QVQLVQSGAEMKNPGASVKVSCAASGYTFTDFYIHWVRLAPGQGLEWMGWMNPKTGRTNNAQNFQGRVIMTRDTSIGTAYMELRRLTSDDTAVYYCVTGGWISPYYDSSYYPNFDHWGQGTLVTVSS
VL: QSALTQPASVSGSPGQSITISCTGTSYDVGKFDLVSWYQQHPGKAPKYMIYEVNKWPSGVSHRFSGSKSGNTASLTISGLQAEDEADYYCCSFGGSATVVCGGGTKVTVL
B5: DH270.4 (antibody, V domains shown)
VH: EVQLVQSGAEMKNPGASVKVSCAASGYGFTDFYIHWVRLAPGHGLQWMGWMNPKTGRTNNAQDFQGRVILTRDTSIGTAYMELRRLTSDDTAVYYCVTGGWISPYYDSSYYPNFDHWGQGTLITVSS
VL: QSALTQPASVSGSPGQSITISCTGTSYDVAKFDLVSWFQQHPGKAPKYMIYEVNKWPSGVSHRFSGSKSGNTASLTISGLQAEDEADYYCCSFGGSATVVCGGGTKVTVL

What was measured:
Man9-V3 glycopeptide [1] = target: T1, Man9-V3 glycopeptide (Man9GlcNAc2 at N301 and at N332; disulfide bridge between C296 and C331 (cyclized); biotin tag); assay: BLI
T1 peptide: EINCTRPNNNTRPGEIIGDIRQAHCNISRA

Man9-V3 glycopeptide [2] = target: T1, Man9-V3 glycopeptide; assay: BLI

Row | Binder | Kd (Man9-V3 glycopeptide [1]) | Kd (Man9-V3 glycopeptide [2])
1 | B1 | 3290 nM | –
2 | B2 | – | 4770 nM
3 | B3 | – | 281 nM
4 | B4 | – | 195 nM
5 | B5 | – | 346 nM
